# Reference: the supplement of paper PMC9170038
# Test system: MS2 coat protein
# Assay: apparent KD of MS2 coat protein; designed switch direction (-1 OFF switch, 1 ON switch): 1; higher = weaker reporter binding
# Outline: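 Three titration conditions were used: no input, 200 uM small-molecule ligand, and an oligonucleotide input. In each, SNAP-549-labelled MS2 coat protein was raised from 0.7 or 1.5 nM, doubling, to 3 µM over designed RNA switches transcribed on Illumina chips by stalled E. coli RNA polymerase. Curve fits of normalised cluster fluorescence gave values whose per-design median over clusters is the apparent KD.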
# [1] = Eterna round: R95, input ligand: FMN 200 uM
# [2] = Eterna round: R95, input ligand: microRNA oligo, concentration not stated
# [3] = Eterna round: R95, input ligand: none
# [4] = input ligand: microRNA oligo, concentration not stated
Sequence,apparent KD of MS2 coat protein [1] [nM],apparent KD of MS2 coat protein [2] [nM],apparent KD of MS2 coat protein [3] [nM],apparent KD of MS2 coat protein (input ligand: FMN 200 uM) [nM],apparent KD of MS2 coat protein [4] [nM],apparent KD of MS2 coat protein (input ligand: none) [nM]
AGCGCGGUCUCGCAGGAUAUCCACAUUCCUACAUGAGGAUCACCCAUGUCGCUGCAGGAUAUUAGGGAGAAGGGUGAUGCCGCGG [Quesed] (puzzle: Same State 2),22.7,42.7,48.4,,,
"UUGCGGGCUUGAGGAUAUUGAGUACAUAUGUUUAACAUGAGGAUCACCCAUGUGGGUUGCGGUAUCGAGAAGGUAACUUCCUGC [salish99_SSNG2_r04_811] (Eterna round: R96, puzzle: Same State NG 2)",,,,100,65.3,91.1
CUCAAACAUGAGGAUCACCCAUGUGUUGUCAUGGGAGGAUAUCUAAGUUCGUUGUAUUCGGGAGAAGGCCUAUGUC [× ×•×ª×• ×ž×“×™× ×” × ×—×ª-10] (puzzle: Same State 1),,199,,,,
"UGGCUGGUGCUAGGAUAUGCAUGAGGAAUCCUCGUAGAAGGAGCACGACAUGAGGAUCACCCAUGUAGCCGUCCGUAGACGGCU [salish99_SSNG1_r04_009] (Eterna round: R96, puzzle: Same State NG 1)",,,,98.7,26.3,91.8
AAACUACGUGCACAGGAUAUACGUUCCUAUACAUGAGGAUCACCCAUGUACCAACUGAAAAGGAAGUAGAAGGGUGUCCGUAAAC [Erbibearza] (puzzle: Same State 2),17.7,80.3,53.7,,,
"UCGGGCGUACUUGCAGACAUGAGGAUCACCCAUGUAAAUGGGAAGGAUAUGGUACCGUUUCGGUACCAGAAGGUCCUGGGUGCU [salish99_SSNG3_r04_308] (Eterna round: R96, puzzle: Same State NG 3)",,,,810,281,1960
"UUAAUGAAGUAAGGAUAUACAUGAGGAUCACUCGUAGAAGGUACUAAACAUGAGGAUCACCCAUGUACCGGUCCGUAGACUGGA [JL SSNG1 1.01] (Eterna round: R96, puzzle: Same State NG 1)",,,,472,157,572
"AUAGUUGCCGAAGGAUAUGAUGAGGAUCACCCAUCAGAAGGUUGGCUAUUGGGUGGACAUGAGGAUCACCCGUGUUCUUUGGUA (Eterna round: R96, puzzle: Same State NG 1)",,,,50.3,47.5,82.1
"GUAGCAUACCGAGGAUAUUCAUAACAUGAGGAUCACCCAUGUUAGGCCAGCAUUAGCUGGCCUUGGGAGAAGGCGGAAUGCUAC [Xeonanis - 20 Mod52] (Eterna round: R96, puzzle: Same State NG 2)",,,,17.5,14.5,22.2
"GCUGGCAUGCAAGGAUAUCCUUCCGAGUAGGAAGGAGAAGGUGCUUGUGGGACAUGAGGAUCACCCAUGUAUGUUGGCCACGAC [Inrala] (Eterna round: R96, puzzle: Same State NG 1)",,,,,82.1,
"GUUACAUGAGGAUCACCCAUGUAUGUGUGGGAGUAAGUGUCUUAGGAUAUCUGGUAUUUAAUUUAAGAGAAGGAAGAUUGUUGU [JMF's solution 30] (Eterna round: R96, puzzle: Same State NG 3)",,,,91.9,63.7,77.3
"UGACACACGGCAGGAUAUCCUUAGCAAAGCUAAGGAGAAGGGCCUCAUGUCGUGGAAACGUGACAUGAGGAUCACCCAUGUUGC [Omei SS(NG)1 Cv7] (Eterna round: R96, puzzle: Same State NG 1)",,,,154,18.1,85
"GUGGUCAGACAUGAGGAUCACCCAUGUGGAAUAAAUAACACACAGGAUAUCGAAUAUAAAAUAUACGAGAAGGGUGGAUUGGUG (Eterna round: R96, puzzle: Same State NG 3)",,,,,334,
GGAGCCGGCACUGAGGAUAUUCAUAUUAAAACAUGAGGAUCACCCAUGUAGGCCAGAAGGCCUUGGGAGAAGGCGGGUCGGCCCG [Bibimoar - 3] (puzzle: Same State 2),27.2,360,647,,,
UUUAGUUGCGGGCAGGAUAUGUAUUAAAAUACAUGAGGAUCACCCAUGUACGGGUAUAACACCCGACAGAAGGGCCAAUCGCGAC [Laonerce - 4] (puzzle: Same State 2),16.8,62.6,91.5,,,
ACGCGGGUAUCACAGGAUAUACUCAUAACUACAUGAGGAUCACCCAUGUGGCGGAAUUCCGGUGCGUAGAAGGGUGAUGGACCGC [Artece] (puzzle: Same State 2),19.3,28.5,26.9,,,

Sequence,apparent KD of MS2 coat protein [1] [nM],apparent KD of MS2 coat protein [2] [nM],apparent KD of MS2 coat protein [3] [nM],apparent KD of MS2 coat protein (input ligand: FMN 200 uM) [nM],apparent KD of MS2 coat protein [4] [nM],apparent KD of MS2 coat protein (input ligand: none) [nM]
"UGGUACAUGGGAGGAUAUCUCAUGGUGACAUGAGGAUCACCCAUGUAGUUGGACCGGAAACGGUGAGAGAAGGCCCAUGUACCU [JL SSNG1 3.74] (Eterna round: R96, puzzle: Same State NG 2)",,,,72.1,68.3,95.9
"ACGUGGCUGCCGCAGGAUAUACCCUGUUCCACAUGAGGAUCACCCAUGUUUACGAACUAUGAGAGGUAGAAGGGUGGAUGUCAUU [Beenvean] (Eterna round: R96, puzzle: Same State 2)",,,,12.2,18.9,30.7
ACAAGACAUGAGGAUCACCCAUGUAUAAAUUACACAGGAUAUCGGUGGGCCGCGCCUACACGAGAAGGGUGACUUC [Gere] (puzzle: Same State 1),77,33.4,35.5,,,
"AGCUAUUAAUCAGGAUAUGGUCACAUGAGGAUCACCCAUGUAUAGAUGAUUGAAUGUGGUCUACACUAGAAGGGAUUGCUAACA [SameState NG2 #58] (Eterna round: R96, puzzle: Same State NG 2)",,,,167,96.1,150
"GGAUCGGAGGCAGGAUAUGGGCUCAGAACAUGAGGAUCACCCAUGUAAAACGGCGCAAUGCGCCACCAGAAGGGCCUCCGACCG [Inmadibi] (Eterna round: R96, puzzle: Same State NG 2)",,,,8.62,17.8,44.7
"UCUUGGUUUUUGCUCGUUUUUUGUGUUGAACAUGAGGAUCACCCAUGUAUUGUACAAUCCAAUUUAAUAAUGGUCCG [JMF 48] (Eterna round: R96, puzzle: Sensor for hsa-mir-208a)",,,,105,70.1,99.2
"UGUUGUAUUACAGGAUAUCUAUGAUUUUUGUUUAGAGAAGGGUAUUCACAUGAGGAUCACCCAUGUAUAUACGAGGAAGUUGUG [JMF's solution 66] (Eterna round: R96, puzzle: Same State NG 1)",,,,,42.4,
"GCUAGAAUAAACGCCUACAUGAGGAUCACCCAUGUAUGUAGGCAGGAUAUCGUAUGCAAAGCAUACGAGAAGGGCCUUACUAGC [Mat - Same State NG 3 - JL Mod - D33] (Eterna round: R96, puzzle: Same State NG 3)",,,,25.7,27.7,43.4
"ACUGCAAUUAACGCCUACAUGAGGAUCACCCAUGUAUGUAGGCAGGAUAUCGUUUGCUUUGCAAACGAGAAGGGCUGUAGUAGC [salish99_SSNG3_R04_003] (Eterna round: R96, puzzle: Same State NG 3)",,,,59.1,59.4,64.1
"AGCUAUUACGAAGGAUAUAGUAACAUGAGGAUCACCCAUGUUUACAUGAUUAAUUGUGAUCACGUCUAGAAGGUUGUACUAACA [SameState NG2 #34] (Eterna round: R96, puzzle: Same State NG 2)",,,,33.1,30.2,37.1
"UGGUACAUGGGAGGAUAUGGGCAAGAGACAUGAGGAUCACCCAUGUUAUAAAAGCCGAGAGGCAUCUAGAAGGCCCAUGUACCU [JL SSNG1 3.90] (Eterna round: R96, puzzle: Same State NG 2)",,,,14.6,38.5,55.4
AUUAAACAUGAGGAUCACCCAUGUCAACAAAGUCGAGGAUAUGGGCAAAUAAAAUAAGAUCCAGAAGGCGAAUAAU [salish99_ss1_r3_067] (puzzle: Same State 1),55.7,16.8,19.5,,,
UCUUGGUUUUUGCUCGUUUUUUGUGUUGAACAUGAGGAUCACCCAUGUAUUGUACAAUCCAAUUUAAUAAUGGUCCA [Mod of one of JR's submissions 3] (puzzle: Sensor for hsa-mir-208a),44.2,42.2,47.8,,,
"GUUACAUGAGGAUCACCCAUGUAUGUGUGGGAGUAAGUGUCUUAGGAUAUCUAUUAUGUAAAUUAAGAGAAGGAAGAUUGUUGU [JMF's solution 17] (Eterna round: R96, puzzle: Same State NG 3)",,,,160,222,262
AGUCCAGCCUGAGCUGGACAAAAGCAUGUACAUGAGGAUCACCCAUGUUCAUGUACAAGCUUUUUGCUCGUCGUAAU [Mat - hsa-mir-208a - Mod of JL - 48] (puzzle: Sensor for hsa-mir-208a),501,16.7,611,,,
